The text below walks through data of the supplement of paper PMC12042874.

This series can be described thus: amyloid nucleation score (Sup35N fusion, yeast selection) (log enrichment); library NNK2; higher = more nucleation; inactive = no reads after selection. An outline of the steps: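 On medium lacking adenine and uracil, psi-negative yeast expressing peptides of 20 random codons fused to Sup35N were grown 7 days at 30°C after a 24-hour induction with 100 μM copper sulfate. Illumina sequencing of input and output plasmid inserts gave the reads, and sequences under 100 input reads were excluded. The nucleation score is the DiMSum log enrichment of output over input reads, centred on the mode score of non-aggregating sequences.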

± gives the uncertainty stated by the source.

In the case of LAPLDLSLVFWNTRNVLVL, the amyloid nucleation score is 0.746 ± 0.67.

As to HHHLRQVLGESQYLSCLWIK, the amyloid nucleation score was determined as 0.388 ± 0.47.

The substance HCKLVFRGVMTESHSSACGG had an amyloid nucleation score of 2.82 ± 0.071.

As to GRRVPGWNQSYL, the amyloid nucleation score is -0.274 ± 0.76.

Substance FRVIYDRHTGILRSHERAKG had an amyloid nucleation score of -0.551 ± 0.35.

Take TKSVVLMNSMSS: the amyloid nucleation score worked out at 0.072 ± 1.1.

In turn, VTVSVGSLYTNFATPKDRMV showed an amyloid nucleation score of 0.357 ± 0.36.

RFQWSCEVRESPPLNVDLMG returned an amyloid nucleation score of 1.41 ± 0.44.

Substance PMRKADRYSSSSET displayed an amyloid nucleation score of -0.479 ± 1.

The substance MRVLFIDYKTVRYCDDL gave an amyloid nucleation score of -1.03 ± 1.1.

The substance PGFKSCIP showed an amyloid nucleation score of 0.598 ± 0.28.

On to ILGCWELSHM, for which the amyloid nucleation score is -0.849 ± 1.1.

With CANFRSGYGA, the amyloid nucleation score was -0.241 ± 0.35.

The substance SCNPRKNGSQCCGMNLSLSV gave an amyloid nucleation score of 0.808 ± 0.8.

In turn, VIWHWVAGH had an amyloid nucleation score of 5.71 ± 0.087.

For TGSVDSSSIV, the amyloid nucleation score was 0.093 ± 0.42.

ALLALTVLIYNLIDMLQVNR: the amyloid nucleation score came out at 0.728 ± 0.8.

Consider SNEIQNII, for which the amyloid nucleation score came out at 0.57 ± 0.81.

LDALGLDTFNMQLV returned an amyloid nucleation score of 0.236 ± 0.28.

ILVRTSCGGM displayed an amyloid nucleation score of -0.898 ± 1.1.

With HIHSKQIRVFNFSNFLEQIY, the amyloid nucleation score is 6.113 ± 0.033.

QCGWDFLFIVMCKFVQRRCS came in with an amyloid nucleation score of 0.35 ± 0.8.

In turn, FYQFLNSNGKYTGVYGAAPR displayed an amyloid nucleation score of -1.01 ± 0.41.

Consider TSGVTWQLACSVK, for which the amyloid nucleation score is 4.2 ± 0.095.

MVCSRYRRVCSNVNG showed an amyloid nucleation score of 0.506 ± 0.48.

Turning to CGQLSVWYEGMINVSCFLEI, the amyloid nucleation score is -1.4 ± 0.75.

For LYLWWILIYDHMAPKEW, the amyloid nucleation score was -0.47 ± 0.63.

Turning to CRASG, the amyloid nucleation score amounted to 0.409 ± 0.25.

The substance TGNDFSCFPRALEMATWTTV displayed an amyloid nucleation score of 0.016 ± 1.1.

Turning to AVWCDFHSERAMCVVGM, the amyloid nucleation score came to 5.249 ± 0.043.

Substance SVFMIYKTVSGGHAYFVVQQ displayed an amyloid nucleation score of 4.97 ± 0.072.

Regarding RLSLNFDVRLC, the amyloid nucleation score turned out to be 1.21 ± 0.61.

VDRESRFWWEGVQGFLDYWV yielded an amyloid nucleation score of -0.614 ± 0.79.

On to LDDWDGKTSRIHSGFYSRLR, for which the amyloid nucleation score stood at 0.224 ± 0.52.

YSEWSSTRPQFRTLNHEWLL showed an amyloid nucleation score of 0.498 ± 0.74.

Turning to HSPYRFKSKCQRINMFCVIT, the amyloid nucleation score was 5.713 ± 0.047.

The substance YRSFCWEQ showed an amyloid nucleation score of -0.581 ± 0.56.

YNIWL came in with an amyloid nucleation score of 2.49 ± 0.12.

The substance IDCWCSVSWATAL displayed an amyloid nucleation score of -0.4 ± 0.64.

RVDYSMREFCLSSRAREDTV: the amyloid nucleation score is -0.353 ± 0.42.

Consider FIVMEVVEERCMSIVVESNQ, for which the amyloid nucleation score is -0.804 ± 0.61.

Regarding YSENNLIG, the amyloid nucleation score result is “inactive”.

With SFFVIGW, the amyloid nucleation score was found to be 0.102 ± 0.17.

The substance SNVRWKRGYGDNTILGGSLT came in with an amyloid nucleation score of 1.51 ± 0.31.

PSSKVL displayed an amyloid nucleation score of 0.024 ± 0.55.

With WHGRWSTNRRRPPNKMCRLV, the amyloid nucleation score stood at 1.06 ± 0.28.

In turn, NIGKMLRALFDMSNVRT came in with an amyloid nucleation score of -1.17 ± 0.39.

RATPTSLSIAMFCLFGHALL showed an amyloid nucleation score of 5.87 ± 0.079.

WWLMWS returned an amyloid nucleation score of 0.691 ± 0.53.

Substance VVLQTKHSLAISGQQLIPMA gave an amyloid nucleation score of 0.32 ± 0.32.

YLSTFVGTVHDSHTCRFCWN registered an amyloid nucleation score of 3.79 ± 0.13.

DRSSMTG: the amyloid nucleation score was found to be 0.698 ± 0.21.

As for VLSVISLFGHILVMFLERKV, the amyloid nucleation score is -0.13 ± 0.76.

On to NMWTFRSIMIPALFYEIFIA, for which the amyloid nucleation score was -1.75 ± 0.54.

Substance NFYAYIIVDCSWMCSTCYSL came in with an amyloid nucleation score of 5.52 ± 0.044.

In the case of NGSMIKWDRFASCILHAML, the amyloid nucleation score entry was “inactive”.

YMYFRVFDS gave an amyloid nucleation score of 0.525 ± 0.34.

Regarding LLANPIELRRYGPTSLKVGI, the amyloid nucleation score is -0.669 ± 0.55.

Take VDRFPVLVPKGWHMRRWCIR: the amyloid nucleation score stood at 0.669 ± 0.39.

Substance CDKFFLDF returned an amyloid nucleation score of -1.9 ± 0.48.

The substance GLSMCIWCRSIQMTTLGSRY yielded an amyloid nucleation score of 0.365 ± 0.36.

QFGYRCTTPC: the amyloid nucleation score was determined as 0.522 ± 0.3.

Consider DRHIVLSHSSGNLSRLLLAL, for which the amyloid nucleation score stood at 5.753 ± 0.055.

In turn, TSHVGL gave an amyloid nucleation score of -1.39 ± 0.49.

In turn, WYAHGLISVCFVCAGLESLG had an amyloid nucleation score of -0.251 ± 0.76.

SRCEVNTWLLILSGGITPMN had an amyloid nucleation score of 0.722 ± 0.37.

Substance LLRMLSYR displayed an amyloid nucleation score of 0.138 ± 1.1.

HVNYWGRLCMKKRCNVDVNH came in with an amyloid nucleation score of 5.634 ± 0.043.

VLSNYGNYISDWQLQLRLT returned an amyloid nucleation score of -0.149 ± 0.32.

The substance LALRRDLFRVVLSNKTTSTR showed an amyloid nucleation score of 1.07 ± 0.28.

In turn, YDLLGHKAVFEGERVNW came in with an amyloid nucleation score of 0.003 ± 0.4.

RNYEGPPGDLGQQVLSHSMP came in with an amyloid nucleation score of -0.853 ± 0.63.

The substance RDMGPLVNAPVA returned an amyloid nucleation score of 0.282 ± 0.46.

As to KWYICLKIIQWNCISDQC, the amyloid nucleation score was determined as 5.38 ± 0.054.

WHKFGNNRANEGRYIMHLMH had an amyloid nucleation score of -0.282 ± 0.48.

VLSEI gave an amyloid nucleation score of 0.607 ± 0.25.

Turning to MGENVLGRQGVLPKGEI, the amyloid nucleation score turned out to be 0.192 ± 0.45.

Regarding YCLVTRLHR, the amyloid nucleation score is 0.185 ± 0.8.

Substance FSVIICVTALVWACCCTRIV showed an amyloid nucleation score of 1.09 ± 0.36.

Regarding TYMCQYDSLLTKTMINNRRG, the amyloid nucleation score was -0.611 ± 0.61.

The substance WELKAHVDV yielded an amyloid nucleation score of 0.737 ± 0.54.

Substance GSLMRFDSWLGGTIASS registered an amyloid nucleation score of 0.402 ± 0.66.

Substance ERNYVT displayed an amyloid nucleation score of -0.525 ± 1.1.

On to DVFWKPVYARYFFHRVCMRE, for which the amyloid nucleation score result is “inactive”.

As for LTWICEFGRSFFSWICVMIG, the amyloid nucleation score was found to be 0.856 ± 0.14.

LNGLLTIRADVASKSIRLMH registered an amyloid nucleation score of 0.004 ± 0.51.

On to KHVLGWNISFFYFTFAIG, for which the amyloid nucleation score entry is “inactive”.

On to EGMTMTHGAGQLMLGGTASV, for which the amyloid nucleation score was 0.904 ± 0.44.

With FSGFSLRSPTTRGGVCGKTV, the amyloid nucleation score was 0.575 ± 0.47.

Take STMKC: the amyloid nucleation score was -0.29 ± 0.56.

Substance IVLNVYMRKTKQV had an amyloid nucleation score of 0.078 ± 0.29.

The substance IRMVDTCRVLKLSGEPFSRD showed an amyloid nucleation score of -0.993 ± 0.78.

Consider ISSSIEHNRCGVEINVICWS, for which the amyloid nucleation score worked out at 7.312 ± 0.051.

On to DDIFIRKLFQYS, for which the amyloid nucleation score result was “inactive”.

Take EADELGLLVSIKCRAARRCW: the amyloid nucleation score was 5.743 ± 0.052.

On to VVNRYRNTFFCVYWTSAGVL, for which the amyloid nucleation score was found to be 6.65 ± 0.073.

Take LCLTYYRDHGVLASMYFHVW: the amyloid nucleation score came to 0.529 ± 0.31.

Take LSGWDVHTSSTSVFRNNFIY: the amyloid nucleation score result was “inactive”.

WYERVWLAWSR: the amyloid nucleation score came out at 0.66 ± 0.57.

YYWTPCGVCITFVGCNVILY gave an amyloid nucleation score of 8.499 ± 0.022.

For the substance GRLGSAPQKR, the amyloid nucleation score is 0.686 ± 0.32.

HSCVYYTVYLRLFSMKGSEN: the amyloid nucleation score is 5.361 ± 0.038.

YKVLSISLIVDTFARLYYAL yielded an amyloid nucleation score of -0.921 ± 0.54.

As for FVVQFMGADHAFKERFGGH, the amyloid nucleation score came to 1.87 ± 0.2.

For the substance YQMISDSPNINIFYGFYSET, the amyloid nucleation score result was “inactive”.
